Test results as given in article PMC4646009.
Where two headings read alike, the source gives them in different places.

Legend:
[1] = biological target: Streptococcus thermophilus QueG (epoxyqueuosine reductase) (Streptococcus thermophilus); experiment: native MS; nano-ESI, Waters Synapt G2, protein at 3-30 uM in anaerobic 100 mM ammonium acetate pH 6.8; monomer to dimer
[2] = biological target: Streptococcus thermophilus QueG (epoxyqueuosine reductase) (Streptococcus thermophilus); experiment: as above; remark: listed apart in the source

Streptococcus thermophilus QueG (epoxyqueuosine reductase) (enzyme)
proportion of dimer [1]: 5% | stoichiometry N [1]: 2 | proportion of dimer [2]: < 5%
